# B1: FR1-H7: human monoclonal antibody from phage Fab library, specific for FGFR-1(IIIb) and/or FGFR-1(IIIc), and/or FGFR-4(IIIc); VH/VL SEQ ID NOS:7, 8 (antibody, listed as Homo sapiens)
# VH: MAEVQLVQSGAEVKKPGASVKVSCKVSGYTFTDYYMHWVQQAPGKGLEWMGLVDPEDGETIYAEKFQGRVTITADTSTDTAYMELSSLRSEDTAVYYCARDDYMDVWGKGTLVTVSSASTKGP
# VL: LETTLTQSPDTLSLSPGEGATLSCRASQSVSGSALAWYQQKPGQAPRLLIYDASSRATGVPDRFSGSGSGADFSLTISRLEPEDFAVYSCQQYGSSPLTFGPGTKVDVKRTVAAPSVFIFPPSDEQLKSGTASVVCLLNNFYPREAKVQWKVD
# Experiments:
# FGFR-2b = target: T1, FGFR-2b (Homo sapiens, UniProt P21802); test: BiaCore binding kinetics; details: BiaCore kinetic analysis
# T1 construct: purchased R&D Systems
# FGFR-1(IIIb) = target: T2, FGFR-1(IIIb) (Homo sapiens, UniProt P11362); test: ELISA binding assay
# T2 construct: purchased R&D Systems
# Experimental: (§1) Recombinant FGFRs (R&D systems) at a concentration of 1 μg/ml in PBS were coated on 96-well plates at room temperature for 2 hrs. The plates were washed 3 times with 0.2% Tween20/PBS, and blocked with 5% milk/PBS for 2 hrs before use. FR1-H7 or FR1-A1 was added to the plate and serially diluted in 0.2% Tween20/PBS. The plate was incubated at room temperature for 2 more hrs. The captured antibodies were detected using an anti-human light chain monoclonal antibody conjugated with […] (Pierce Biotechnology, Rockford, Ill.) solution prepared according to supplier's instructions.
# other FGFRs = test: ELISA binding assay
# Experimental: as §1
# FGFR-1 = target: T3, FGFR-1 (Homo sapiens, UniProt P11362); test: Phosphorylation assay in FGFR-1 expressing L6 cells (western blot); format: cell-based; details: anti-phospho-tyrosine western blot
# T3 construct: expressed in transfected cells; host or cells: L6 (ATCC), pBABE retroviral vector
# Experimental: FGFR-1 expressing L6 cells were cultured in 10% FBS, DMEM, in a 24-well tissue culture plate till confluency. Cells were Serum starved in 5 μg/ml heparin, 0.1% FBS, DMEM, for 8-24 hrs. Either FR1-H7 or FR1-A1 was added to the media and allowed to bind with the cell surface receptors at 37° C. for 1 hr. Cells were then stimulated with 20 ng/ml FGFs at 37° C. for 10 min before they were lyzed using ice-cold lysis buffer for 30 min. Cell lysate was subjected to SDS-PAGE followed by western blot. Membranes were probed with anti-phospho-tyrosine antibody (Cell Signaling Technology, Inc., Beverly, Mass.) for detection of phosphorylated FGFR-1 receptors according to supplier's instructions.
# The phosphorylation assay for small molecules is essentially the same as the phosphorylation assay described in Examples 7 and 15 and Phosphorylation Assay, except that small molecule compounds was used instead of FGFR-1 antibodies in all occasions. […] Equal amount of cell lysates were applied to each sample lane. Receptor auto-phosphorylation was probed using anti-phospho-tyrosine antibody as described in the original patent.
# [1] = system: Human umbilical vascular endothelial cells (HUVECs); test: HUVEC proliferation assay (3H-thymidine); format: cell-based; details: 3H-thymidine incorporation
# Experimental: Human umbilical vascular endothelial cells (HUVECs) were seeded in 96-well tissue culture plates at a concentration of 5×10^4 cells/ml. After attachment, cells were quiesced in EMG-2 medium lacking EGF, VEGF and FGF-2 (Cambrex, East Rutherford, N.J.) for 24 hrs. Quiescent media in wells were aspirated and replaced with EMG-2 that contained all the growth factors mentioned above. Antibodies were serially diluted and added to the wells. Cells were incubated at 37° C. with 5% CO2 in a Muaire™ DH autoflow incubator (Cryostar Industries, Inc., White Hall, Pa.) for 48-72 hrs. Cell growth was determined by monitoring ^3H-thymidine incorporation using a 1450 Micorbeta liquid scintillation counter (Perkin Elmer, Gaithersburg, Md.).
# human adipocytes = test: Adipocyte proliferation assay (3H-thymidine); format: cell-based; details: 15 ng/ml FGF-2, 60 hrs
# Experimental: Two-week-old (after induced differentiation) grade 2 human adipocytes were obtained from Zen-Bio Inc. (Research Triangle, N.C.), and were maintained in the shipping media in a 96-well tissue culture plate. To evaluate the effects of FGF-2 on the proliferation of adipocytes, recombinant FGF-2 (R&D systems) was serially diluted and added to the wells of the plate. The cells were allowed to grow in the incubator for 60 hrs, before the level of ^3H-thymidine incorporation was determined. To evaluate the effects of FR1-H7 on adipocytes proliferation, the antibody was serially diluted and added to the cells before addition of recombinant FGF-2 to a final concentration of 15 ng/ml. ^3H-thymidine incorporation was determined after 60 hrs of incubation.
# [2] = Repeated-dose study in female athymic nude mice: body weight, food intake, rearing, blood glucose; format: in vivo
# Experimental: Female athymic nude mice (Cr1:NU/NU-nuBR, Charles River Laboratories, Wilmington, Mass.) were housed 4-5 per cage. Mice were given autoclaved food (Lab Diet #5001, PMI Feeds Inc., St. Louis, Mo.) and water ad libitum. All animal use in this study was conducted in compliance with approved institutional animal care and use protocols, and according to NIH guidelines (Guide for the Care and Use of Laboratory Animals, NIH publication no. 86-23, 1985).
# In one assay, mice were injected intraperitoneally (i.p.) with FR1-H7 at 0.19, 1.9, and 19 mg/kg body weight (n=5 per group). In another assay, mice were injected subcutaneously (s.c.) with the antibody, at 0.4, 4, and 40 mg/kg body weight. In control arms, mice were treated with saline i.p. or s.c. In addition, one group of mice was left untreated (n=4). All treatments were given at a volume of 10 μl/g body weight in Saline. Treatments were started on a Wednesday (Day 0) with additional treatments on the following Friday, Monday, Wednesday, and Friday. After this 9-day treatment period mice received no additional treatments.
# Alternatively, female athymic nude mice were injected (i.p.) with saline, 2 mg/kg, or 20 mg/kg FR1-A1 on a Monday (Day 0) and Wednesday. Body weights were measured before the first injection, and on Day 2 and Day 5. Food intake per group was measured 2 days after the first injection.
# The body weights of all animals were measured 3 times/week. Food consumption, behavior, and serum glucose were evaluated as follows. Food Intake Measurement: Prior to the treatment on Day 2 mice were placed in a new cage and the weight of the food container in the cage top was weighed. Prior to the treatment on Day 5 the weight of the food container was measured again. The difference in the Day 2 to Day 5 food container weight was divided by the number of mice per cage and the number of days between the measurements to give a food intake per mouse per 24 hrs. Activity Measurement: On Day 12, 3 days after the final treatment, mice were placed individually into a new cage and the number of rearings was counted over a 1 min period. Blood Glucose Measurement On Day 16, 7 days after the final treatment, non-fasted blood glucose was measured in blood collected from the tip of the tail using an Ascensia Elite XL blood glucose meter (glucose oxidase method, Bayer, Pittsburg, Pa.).
# T3 sequence (P11362 22-822): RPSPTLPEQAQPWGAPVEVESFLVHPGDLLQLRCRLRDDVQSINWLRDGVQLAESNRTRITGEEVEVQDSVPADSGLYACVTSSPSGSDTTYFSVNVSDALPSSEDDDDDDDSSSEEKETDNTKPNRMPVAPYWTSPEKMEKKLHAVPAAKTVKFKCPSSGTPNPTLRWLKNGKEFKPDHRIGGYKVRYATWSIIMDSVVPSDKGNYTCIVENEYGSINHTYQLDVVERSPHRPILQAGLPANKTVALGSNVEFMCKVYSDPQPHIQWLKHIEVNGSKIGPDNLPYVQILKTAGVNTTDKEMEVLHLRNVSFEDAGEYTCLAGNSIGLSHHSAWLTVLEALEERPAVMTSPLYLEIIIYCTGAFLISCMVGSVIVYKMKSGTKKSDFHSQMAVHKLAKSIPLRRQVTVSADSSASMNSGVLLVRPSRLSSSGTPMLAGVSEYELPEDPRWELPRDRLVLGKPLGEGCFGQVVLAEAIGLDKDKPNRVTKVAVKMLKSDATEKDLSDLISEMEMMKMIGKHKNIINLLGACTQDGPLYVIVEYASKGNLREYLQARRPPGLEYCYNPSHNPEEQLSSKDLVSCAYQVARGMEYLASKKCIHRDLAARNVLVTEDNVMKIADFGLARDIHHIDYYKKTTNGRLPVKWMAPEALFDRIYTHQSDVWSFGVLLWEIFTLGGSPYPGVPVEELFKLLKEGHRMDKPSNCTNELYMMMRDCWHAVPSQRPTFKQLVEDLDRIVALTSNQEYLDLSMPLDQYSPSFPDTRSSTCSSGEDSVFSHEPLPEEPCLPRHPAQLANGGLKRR
# T2 sequence (P11362 22-822 isoform P11362-19 limits assumed): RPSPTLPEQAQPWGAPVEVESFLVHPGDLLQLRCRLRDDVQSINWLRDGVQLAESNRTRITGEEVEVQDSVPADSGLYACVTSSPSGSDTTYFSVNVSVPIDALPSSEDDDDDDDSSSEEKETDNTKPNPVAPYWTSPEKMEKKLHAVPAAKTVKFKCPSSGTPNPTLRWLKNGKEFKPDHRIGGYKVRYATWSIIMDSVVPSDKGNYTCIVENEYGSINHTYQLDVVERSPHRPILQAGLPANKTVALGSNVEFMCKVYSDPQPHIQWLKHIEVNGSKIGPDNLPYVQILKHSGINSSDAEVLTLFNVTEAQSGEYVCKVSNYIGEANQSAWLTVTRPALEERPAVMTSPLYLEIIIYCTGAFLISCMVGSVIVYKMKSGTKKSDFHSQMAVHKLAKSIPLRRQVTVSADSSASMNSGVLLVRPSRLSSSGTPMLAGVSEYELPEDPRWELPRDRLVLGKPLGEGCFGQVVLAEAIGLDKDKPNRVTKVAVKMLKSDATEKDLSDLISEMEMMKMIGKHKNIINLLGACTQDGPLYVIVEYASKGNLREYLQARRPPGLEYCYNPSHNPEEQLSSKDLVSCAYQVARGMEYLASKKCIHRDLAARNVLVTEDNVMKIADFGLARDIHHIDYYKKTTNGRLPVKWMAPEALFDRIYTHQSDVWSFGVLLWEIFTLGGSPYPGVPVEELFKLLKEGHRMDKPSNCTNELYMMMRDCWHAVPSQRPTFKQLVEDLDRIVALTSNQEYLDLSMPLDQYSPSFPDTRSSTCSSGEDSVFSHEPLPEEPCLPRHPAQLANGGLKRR
# T1 sequence (P21802 22-822 isoform P21802-3 limits assumed): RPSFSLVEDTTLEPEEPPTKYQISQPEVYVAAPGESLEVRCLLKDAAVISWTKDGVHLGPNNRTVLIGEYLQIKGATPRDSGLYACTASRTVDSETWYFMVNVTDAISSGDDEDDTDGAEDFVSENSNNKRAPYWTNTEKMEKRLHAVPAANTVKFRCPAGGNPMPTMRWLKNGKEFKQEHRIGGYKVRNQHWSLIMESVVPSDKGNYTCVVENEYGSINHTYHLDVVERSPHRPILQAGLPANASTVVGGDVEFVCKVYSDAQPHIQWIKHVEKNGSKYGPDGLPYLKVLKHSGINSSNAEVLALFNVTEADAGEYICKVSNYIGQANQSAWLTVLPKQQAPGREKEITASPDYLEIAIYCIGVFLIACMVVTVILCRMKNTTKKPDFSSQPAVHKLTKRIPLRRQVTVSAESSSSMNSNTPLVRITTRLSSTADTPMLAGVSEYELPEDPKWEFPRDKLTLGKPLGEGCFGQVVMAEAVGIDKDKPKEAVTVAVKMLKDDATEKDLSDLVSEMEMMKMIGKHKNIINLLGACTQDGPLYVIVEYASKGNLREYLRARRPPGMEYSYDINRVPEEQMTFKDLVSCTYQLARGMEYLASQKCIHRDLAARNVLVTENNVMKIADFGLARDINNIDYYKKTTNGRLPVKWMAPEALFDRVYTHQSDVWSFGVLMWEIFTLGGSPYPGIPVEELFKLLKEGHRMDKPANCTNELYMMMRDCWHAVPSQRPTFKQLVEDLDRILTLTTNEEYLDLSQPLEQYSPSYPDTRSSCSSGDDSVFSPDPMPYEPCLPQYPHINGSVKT
molecule,measurement,setting,value
B1,Kd,FGFR-2b,> 1000 nM
same,binding to FGFR-1(IIIb),FGFR-1(IIIb),strong affinities
same,binding to the other FGFRs,other FGFRs,does not recognize
same,inhibition of ligand (FGF) mediated receptor phosphorylation,FGFR-1; antibody,significantly inhibits
same,receptor activation by the antibody by itself,FGFR-1; no ligand,does not activate the receptor
same,proliferation of HUVECs in vitro,[1],inhibited the proliferation of HUVECs in vitro in a dose-dependant manner
same,FGF-2-stimulated proliferation of adipocytes,human adipocytes,inhibited the FGF-2-stimulated proliferation of adipocytes in a dose dependant manner
same,moderate weight loss continued one week after treatment was stopped,[2]; 1.9 mg/kg,~0.5 g
same,time to complete weight recovery after treatment was stopped,[2]; 1.9 mg/kg,25 days
same,weight loss of the total body weight,"[2]; 1.9 mg/kg i.p., within the first 3 treatments",~20%
same,lagging time of first significant weight gain after stop of treatments,[2]; 4 mg/kg s.c.,14 days
same,"unusual weight loss of the total body weight, one animal euthanized",[2]; 19 mg/kg group,~50%
same,lagging time of first significant weight gain after stop of treatments,[2]; 19 mg/kg i.p.,24 days
same,reduction of non-fasting blood glucose as fraction of the normal glucose level,"[2]; 19 mg/kg i.p. and 40 mg/kg s.c. groups, one week after end of treatment",⅓
same,lagging time of first significant weight gain after stop of treatments,[2]; 40 mg/kg s.c.,19 days
same,exploratory behavior (rearings per min in a novel environment),[2]; Day 12,not significantly altered
same,maximal weight loss as fraction of the averaged body weight of the controls,[2]; dosage higher than 4 mg/kg,⅓
same,reduction of non-fasting food intake,"[2]; groups that lost weight, between second and third treatment",approximately 35%
same,body weight change,[2]; two lowest dosages 0.19 and 0.4 mg/kg,slight weight gains
